In the supplement of paper PMC9170038:

System: MS2 coat protein
Test: apparent KD of MS2 coat protein; designed switch direction (-1 OFF switch, 1 ON switch): -1; higher = weaker reporter binding
Procedure, shortened: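 The apparent KD reported per design is the median over clusters of curve fits to normalised cluster fluorescence. The RNA switches were transcribed on Illumina chips by stalled E. coli RNA polymerase. SNAP-549-labelled MS2 coat protein was titrated from 0.7 or 1.5 nM, doubling up to 3 µM, in Tris-HCl pH 7.5 buffer containing KCl, MgCl2, BSA, DTT, tRNA and Tween-20, with no input, 200 uM small-molecule ligand, or an oligonucleotide input.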

[1] = input ligand: microRNA oligo, concentration not stated
[2] = Eterna round: R95, input ligand: FMN 200 uM
[3] = Eterna round: R95, input ligand: microRNA oligo, concentration not stated
[4] = Eterna round: R95, input ligand: none

Sequence | apparent KD of MS2 coat protein (input ligand: FMN 200 uM) [nM] | apparent KD of MS2 coat protein (input ligand: none) [nM] | apparent KD of MS2 coat protein [1] [nM] | apparent KD of MS2 coat protein [2] [nM] | apparent KD of MS2 coat protein [3] [nM] | apparent KD of MS2 coat protein [4] [nM]
CUCUCGUGAGGAUAUCUCCGCGAGAAUAAUGUUACACGCGAAGAGAAGGCACAUGAGGAUCACCCAUGUUAAAC [Eternabot (L1) Solution 31] (Eterna round: R97, puzzle: Exclusion 4) | 230 | 54.8 |  |  |  | 
GCCUCACUUGAGGAUCACCCAAGUCAGGAUAUCUACAAGCCGGCCAUGCCAGCUUGCAAGAGAAGGGACUCUAA [Diazale] (Eterna round: R97, puzzle: Exclusion 1) | 205 | 31.6 |  |  |  | 
UUGAUGUCAUCAGGAUAUAGUAUUUAAGACAUAUAUUUUUUCAAACAUGAGGAUCACCCAUGUCGCUAGAAGGGAUUAUAGAUU [JR_ExcNG2_Sub082] (Eterna round: R96, puzzle: Exclusion NG 2) |  |  | 29.6 |  |  | 
GAGAAAGCAAGCAAGUGAAACAUGAGGAUCACCCAUGUCCUCAUUUGCUCGUCUUAUAAGCUAUGCGAAAGCAUAGC [Mat - Sensor v3 - turn-off var 1 - Eli Mod - D50] (puzzle: Sensor v3, turn-off variant 1) |  |  |  | 12.3 | 101 | 11.3
CGAUGCUCGUGCCCACAUGAGGAUCACCCAUGUCGAGUCAGCGAGGAUAUCGGUGGCACAUAGUACGAGAAGGCGCGGACCUGA [Ex NG3 #18] (Eterna round: R96, puzzle: Exclusion NG 3) | 17.7 | 17 | 11.5 |  |  | 
GGGAACGUAGGAUAUACAUGAGGAUCACCCAUGUGAGGAAGGAGUAGGAAGCGUGGAAGUAGAAGGACGGAGAG [JR_Exclu3_Sub074] (puzzle: Exclusion 3) |  |  |  | 40.6 | 31.5 | 46.4
UUUAAUUUUUUUUUUUUACAAGCUUUUUGCUCGUCUUAUACAUGAGGAUCACCCAUGUGGAUGGGAGGUAAAUUAUC [JMF 74] (puzzle: Sensor v3, turn-off variant 2) |  |  |  | 25.4 | 153 | 25.3
CUUUUGUGAGGAUAUCAGUAGUAAUAAAAUAAAAUUACUACUGAGAAGGCACAUGAGGAUCACCCAUGUUCCUC [salish99_ex4_r3_018] (puzzle: Exclusion 4) |  |  |  |  | 37.6 | 
UGGUGGAAGCAGGAUAUGCUAGAAGUGUAGAAUGCAGAAGGGCUAACAUGAGGAUCACCCAUGUAAGAGGUGUU [JR_E6_Sub052] (puzzle: Exclusion 6) |  |  |  |  | 296 | 
GCUCGCUGAGGAUAUACUAAAACACGCUCUGGGAGGUCUUGACUUGAGGAUCACCCAAGUAGAAGGCAGUUAAA [Zaesleeran] (Eterna round: R97, puzzle: Exclusion 2) | 437 | 450 |  |  |  | 
GAUCAACAUGAGGAUCACCCAUGUGAGGAUAUGAUACUAUGUACUUCGGUACAUAGUAUCAGAAGGCAUAUGAA [Ex1-3: 36] (puzzle: Exclusion 1) |  |  |  |  | 52 | 
AGCGACCAAGGAUAUACAUGAGGAUCACCCAUGUCGGCGACCUUCCUGGGAUUUCUUAGUAGAAGGUGGUCAAU [Gesodieddi] (puzzle: Exclusion 3) |  |  |  |  | 35.2 | 
CCGCAAAUGCAGGAUAUCGUAUCGGAUACGAUACGAGAAGGGCGUACAUGAGGAUCACCCAUGUGUCCUAGCGG [Fiskers Ex 6 - 42] (puzzle: Exclusion 6) |  |  |  |  | 16.6 | 
GCCGUGCAAGGAUAUCGCGGAAAGAACAUGAGGAUCACCCAUGUGAUCACCUUCUAAAUGCGAGAAGGUGCUAAAA [Axebied] (puzzle: Exclusion 5) |  |  |  | 75.7 | 56 | 81.4
UUGUUGUAUGUAGGAUAUGCAUAUUAUUAUUGUGCAGAAGGACAUGAGGAUCACCCAUGUAUAUUAUUAUUAUAUAUUAUAUAU [Title] (Eterna round: R96, puzzle: Exclusion NG 1) |  |  | 27.2 |  |  | 
GUGUGCAGAGGAUAUACAUAGUAAAAUAAAAUAUAAUAGGGACAUGAGGAUCACCCAUGUAGAAGGCUGAGUGU [Excluse me!! 23 - Jieux - Exclusion 2] (puzzle: Exclusion 2) |  |  |  | 51.2 | 41.7 | 46.1
AGUAGUUGUUUCCGUUCUUACAUGAGGAUCACCCAUGUUUCUUGUCGUGCUCGCGUUGCUCGUCAGACUUCCUGUUG [salish99_TOv1_r3_063] (Eterna round: R96, puzzle: Sensor v3, turn-off variant 1) | 87.5 | 76.6 | 49.5 |  |  | 
CGAGGUAGAGGAUAUACGUGGAAAUAGAUUCAUGUUAAUCUACAUGAGGAUCACCCAUGUAGAAGGCUAUAGCG [JR_Ex2_Sub075] (Eterna round: R97, puzzle: Exclusion 2) | 80 | 24.9 |  |  |  | 

Sequence | apparent KD of MS2 coat protein (input ligand: FMN 200 uM) [nM] | apparent KD of MS2 coat protein (input ligand: none) [nM] | apparent KD of MS2 coat protein [1] [nM] | apparent KD of MS2 coat protein [2] [nM] | apparent KD of MS2 coat protein [3] [nM] | apparent KD of MS2 coat protein [4] [nM]
AACCCUGUAGGAUAUCAGGGACUACACAUGAGGAUCACCCAUGUGACCUCAACCUAGUGUUGAGAAGGACAGGUAU [Eternabot (Original) Solution 22] (Eterna round: R97, puzzle: Exclusion 5) | 50.9 | 49.1 |  |  |  | 
GGUUGGCGAGGAUAUACAUGAGGAUCACCCAUGUGAGAGAAAAAAGUGAGGAAGAAAAGUAGAAGGCGUUGACG [salish99_ex3_r3_052] (puzzle: Exclusion 3) |  |  |  | 66.2 | 48.3 | 42.8
AUGUUACAUGAGGAUCACCCAUGUGAGGAUAUGAGUCAGUCACGGUGACGUGGCUGACUCAGAAGGCACAAAGG [JL-ex1-4.38 salish99 mod] (Eterna round: R97, puzzle: Exclusion 1) | 754 | 180 |  |  |  | 
AAGAGGUCAGGAUAUACGGGAAGAGAGAGAAGUAGAGGGUAACAUGAGGAUCACCCAUGUAGAAGGGACUAAGA [JR_Exclu2_Sub072] (puzzle: Exclusion 2) |  |  |  | 34.5 | 29.6 | 33.4
UUUUAACAUGAGGAUCACCCAUGUCAGGAUAUGGUAUUUUUUUUUUUUUUUUUUUUUUCCAGAAGGGACAUUUU [My solution] (puzzle: Exclusion 1) |  |  |  | 16.5 | 11.3 | 15.9
UAUUCACAAGCGAGAUCCCACAUGAGGAUCACCCAUGUGCUCGUCUUAUAAGGUACUGUGACGAUAGUCACGGUACC [Mat - Sensor, turn-off var - Eli Mod - D86] (Eterna round: R97, puzzle: Sensor, turn-off variant 1) | 17.4 | 15 |  |  |  | 
AGAAGAAAAGAGAUUUGCUCGUCUUAUAAGUAUGAAGUAACAUGAGGAUCACCCAUGUAAGUCUAGUGAGAAGGAAG [JR_SV3TOV2_Sub001] (puzzle: Sensor v3, turn-off variant 2) |  |  |  | 22.9 | 50 | 24.4
GCCUCACUUGAGGAUCACCCAAGUCAGGAUAUCUACAGGCCGGCCAUACCGACCUGCAAGAGAAGGGACUCUAA [Aristi] (Eterna round: R97, puzzle: Exclusion 1) | 211 | 31.4 |  |  |  | 
AAGAGGUCAGGAUAUACGGAGAGAGGGAGUUGGUGAGGGUAACAUGAGGAUCACCCAUGUAGAAGGGACUAAGA [JR_Exclu2_Sub078] (puzzle: Exclusion 2) |  |  |  |  | 22.4 | 
CUUCGUAUAGAGGAUAUAGGUUACUGCGGUAUCCUAGAAGGCUGUACAUGAGGAUCACCCAUGUACUUCAGAUC [Exclusion 6 - B - 13:c] (puzzle: Exclusion 6) |  |  |  |  | 12.6 | 
AAUGGUAAAGUCAGGAUAUACGUAAAUCGUACUAGGUAGAAGGGACAUGAGGAUCACCCAUGUAUGAUAGUAAA [Ex4 #31] (Eterna round: R97, puzzle: Brourd's mod of Exclusion 4) | 66 | 76 |  |  |  | 
GGUGCUGGCGCGUCGGUGUUGGUGCAAUAAGCUUGUGAAACAUGAGGAUCACCCAUGUCCUCAUAGGCUCGUCUUGU [salish99_TOv2_r2_088] (puzzle: Sensor v3, turn-off variant 2) |  |  |  | 16.4 | 544 | 14.4
ACAUGUCAUUGAGGAUAUCGCACACAUGAGGAUCACCCAUGUAAACGGAUGCUCUUUCGUGGUUUCGAGAAGGCGAUGUACAUU [Ex NG2 #97] (Eterna round: R96, puzzle: Exclusion NG 2) | 438 | 182 | 335 |  |  | 
GACCCUAGGGUCAGACCCACAAGCUUUUUGCUCGUUUUAACAUGAGGAUCACCCAUGUCUAGUGGAUCUGAUCGGGC [Geores] (puzzle: Sensor v3, turn-off variant 2) |  |  |  | 18.4 | 76.4 | 17.2
UUGACCCACGUCAGGAUAUCAAGAAAAGAGGCUCUUGAGAAGGGACAUGAGGAUCACCCAUGUAAGAAAUAAAU [Qumabibe] (puzzle: Brourd's mod of Exclusion 4) |  |  |  | 101 | 28.4 | 34.6
AGUACGAUGCGUGCUGACAUGCGUCGUGCAGCAGGUGAUACAUGAGGAUCACCCAUGUCCUCAUUUGCUCGUCUUGU [Mat - Sensor v3 - Turn-off var 2 - D18] (puzzle: Sensor v3, turn-off variant 2) |  |  |  | 37.2 | 257 | 36.1
AAGUACCGUCACGAUAGUGAUGGUACAACAAGCAUGUAAACAUGAGGAUCACCCAUGUCCUCAAUUGCUCGUCUUAU [Sensor 3 - 68] (puzzle: Sensor v3, turn-off variant 2) |  |  |  | 692 | 570 | 842
